Data on 1 protein can be found in FireProtDB (doi:10.1021/bi991422s).

For this series the following is noted: Aspergillus oryzae (strain ATCC 42149 / RIB 40), pH 7, DSC, MOPS 30 mM, reversible: yes, whole UniProt chain shown; for denaturant m value / denaturant midpoint (higher = more stable) / unfolding free energy: Urea.

B1: Guanyl-specific ribonuclease T1 wild type, P00651 (protein)
chain: MMYSKLLTLTTLLLPTALALPSLVERACDYTCGSNCYSSSDVSTAQAAGYQLHEDGETVGSNSYPHKYNNYEGFDFSVSSPYYEWPILSSGDVYSGGSPGADRVVFNENNQLAGVITHTGASGNNFVECT
Usually Tm stands for the temperature at the midpoint of the melting transition. Take B1: the denaturant m value is, setting by setting: (5 °C) 1.18 kcal/mol/M; (10 °C) 1.18 kcal/mol/M; (15 °C) 1.14 kcal/mol/M; (20 °C) 1.18 kcal/mol/M; (25 °C) 1.17 kcal/mol/M. The “denaturant midpoint (higher = more stable)” value (“denaturant midpoint” below) (5 °C) came out at 7.04 M; the “denaturant midpoint” value (10 °C) came out at 6.7 M; the “denaturant midpoint” value (15 °C) came out at 6.43 M; the “denaturant midpoint” value (20 °C) was found to be 5.71 M; the “denaturant midpoint” value (25 °C) worked out at 5.2 M. The unfolding free energy (5 °C) was 8.32 kcal/mol; the unfolding free energy (10 °C) worked out at 7.87 kcal/mol; the unfolding free energy (15 °C) came to 7.34 kcal/mol; the unfolding free energy (20 °C) is 6.72 kcal/mol; the unfolding free energy (25 °C) was found to be 6.09 kcal/mol. The Tm (Thermal) is 50.8 °C. Moreover, the “unfolding enthalpy (calorimetric)” value (Thermal) was determined as 96.6 kcal/mol.
